Assay results published in patent US7994123B2, “Hybrid proteins with ErbB4 extracellular domain and neuregulin heparin-binding domain for targeting” (Wayne State University, priority 2004, dated 2011).

Test system: malignant masses (carcinomas, sarcomas, gliomas and medulloblastomas)
Test: Anti-tumor effects in human patients
Format: in vivo
Excerpt: All patients to be treated have histologically confirmed malignant masses confirmed by biopsy or cytology are entered. Malignant diseases including carcinomas, sarcomas, gliomas and medulloblastomas. […] Patients in all stages of malignant disease involving any organ system are included. Staging describes both tumor and host, including organ of origin of the tumor, histologic type, histologic grade, extent of tumor size, site of metastases and functional status of the patient. For a general classification includes the known ranges of Stage 1 (localized disease) to Stage 4 (widespread metastases), see Abraham J et al., Bethesda Handbook of Clinical Oncology, Lippincott, Williams & Wilkins, Philadelphia, Pa., 2001 (or a more recent edition). Patient history is obtained and physical examination performed along with conventional tests of cardiovascular and pulmonary function and appropriate radiologic procedures. The malignant masses are visible on x-ray or CT scan and/or are measurable with calipers. They have not been undergoing any other anticancer treatment for at least one month and have a clinical KPS of at least 50.
HBD-S-B4 is administered intravenously in doses of 0.01-100 μg/kg intratumorally once every 2-7 days. Patient Evaluation: Assessment of response of the tumor to the therapy is made once per week during therapy and 30 days thereafter using CT or x-ray visualization. Depending on the response to treatment, side effects, and the health status of the patient, treatment is terminated or prolonged from the standard protocol given above. Tumor response criteria are those established by the WHO and RECIST (Response Evaluation Criteria in Solid Tumors) summarized below (e.g., Abraham et al., supra)
The efficacy of the therapy in a patient population is evaluated using conventional statistical methods, including, for example, the Chi Square test or Fisher's exact test. Long-term and short term changes in measurements are evaluated separately.

B1: HBD-S-B4: prototypical fusion protein of NRG HBD, spacer and erbB4 ECD (SEQ ID NO:14) (protein)
chain: QKMKPATGLWVWVSLLVAAGTVQPSDSQSGYKKKERGSGKKPESAAGSQSPALPPRLKEMKSQESAAGSKLVLRCETSSEYSSLRFKWFKNGNELNRKNKPQNIKIQKKPGKSELRINKASLADSGEYMCKVISKLGNDSASANITIVESNEIITGMPASTEGAYVSSESPIRISVSTEGANTSSSTSTSTTGTSGTQSVCAGTENKLSSLSDLEQQYRALRKYYENCEVVMGNLEITSIEHNRDLSFLRSVREVTGYVLVALNQFRYLPLENLRIIRGTKLYEDRYALAIFLNYRKDGNFGLQELGLKNLTEILNGGVYVDQNKFLCYADTIHWQDIVRNPWPSNLTLVSTNGSSGCGRCHKSCTGRCWGPTENHCQTLTRTVCAEQCDGRCYGPYVSDCCHRECAGGCSGPKDTDCFACMNFNDSGACVTQCPQTFVYNPTTFQLEHNFNAKYTYGAFCVKKCPHNFVVDSSSCVRACPSSKMEVEENGIKMCKPCTDICPKACDGIGTGSLMSAQTVDSSNIDKFINCTKINGNLIFLVTGIHGDPYNAIEAIDPEKLNVFRTVREITGFLNIQSWPPNMTDFSVFSNLVTIGGRVLYSGLSLLILKQQGITSLQFQSLKEISAGNIYITDNSNLCYYHTINWTTLFSTINQRIVIRDNRKAENCTAEGMVCNHLCSSDGCWGPGPDQCLSCRRFSRGRICIESCNLYDGEFREFENGSICVECDPQCEKMEDGLLTCHGPGPDNCTKCSHFKDGPNCVEKCPDGLQGANSFIFKYADPDRECHPCHPNCTQGCNGPTSHDCIYYPWTGHSTLPQHAKN
For B1, the “% of Patients Responding, <PR” value (All Patients) was 5.3%, the “% of Patients Responding, CR” value (All Patients) was 59.7% and the “% of Patients Responding, PR” value (All Patients) was 11.3%. For the same molecule, the “No. of patients, Response <PR” value (All Patients (400 treated)) was 21, the “No. of patients, Response CR” value (All Patients (400 treated)) was 239 and the “No. of patients, Response PR” value (All Patients (400 treated)) was 45. For the same molecule, the “% of Patients Responding, CR + PR + <PR” value (Brain glioma/astrocytoma) was 61%, the “% of Patients Responding, CR + PR + <PR” value (Breast adenocarcinoma) was 85% and the “% of Patients Responding, CR + PR + <PR” value (Gastrointestinal carcinoma) was 77%. The “% of Patients Responding, CR + PR + <PR” value (Ovarian carcinoma) was 82%, the overall response rate (all tumors) was “about 76%” and the “patients with objective clinical responses” value (all tumors) was “Three hundred and five”. The “CBC, renal and liver functions tests after treatments” value (human, in vivo) was “do not change significantly”, the “average duration of responses” value (human, in vivo) was 24 months and the “incidence of side effects: bloody nose” value (human, in vivo) was 1 % of total treatments. For the same molecule, the “incidence of side effects: blurred vision” value (human, in vivo) was < 1 % of total treatments, the “incidence of side effects: chills” value (human, in vivo) was 10 % of total treatments and the “incidence of side effects: cramps” value (human, in vivo) was < 1 % of total treatments. The “incidence of side effects: diarrhea” value (human, in vivo) was 1 % of total treatments, the “incidence of side effects: dizziness” value (human, in vivo) was < 1 % of total treatments and the “incidence of side effects: fatigue” value (human, in vivo) was < 1 % of total treatments. The “incidence of side effects: feeling faint” value (human, in vivo) was < 1 % of total treatments, the “incidence of side effects: fever” value (human, in vivo) was 10 % of total treatments and the “incidence of side effects: flushing” value (human, in vivo) was 1 % of total treatments. For the same molecule, the “incidence of side effects: gastritis” value (human, in vivo) was < 1 % of total treatments, the “incidence of side effects: headache” value (human, in vivo) was 3 % of total treatments and the “incidence of side effects: hypertension” value (human, in vivo) was 2 % of total treatments. The “incidence of side effects: hypotension” value (human, in vivo) was 2 % of total treatments, the “incidence of side effects: itching/hives” value (human, in vivo) was 1 % of total treatments and the “incidence of side effects: joint pain” value (human, in vivo) was 2 % of total treatments. The “incidence of side effects: nausea” value (human, in vivo) was 5 % of total treatments, the “incidence of side effects: pain” value (human, in vivo) was 5 % of total treatments and the “incidence of side effects: rash” value (human, in vivo) was 2 % of total treatments. The “incidence of side effects: redness on hand” value (human, in vivo) was < 1 % of total treatments, the “incidence of side effects: respiratory” value (human, in vivo) was 3 % of total treatments and the “incidence of side effects: tachycardia” value (human, in vivo) was 2 % of total treatments. The “incidence of side effects: twitching” value (human, in vivo) was < 1 % of total treatments, the “incidence of side effects: vomiting” value (human, in vivo) was 2 % of total treatments and the “time at which objective remissions are evident” value (human, in vivo) was “after four weeks of therapy”. For the same molecule, the toxicity (human, in vivo) was “mild short-lived fever, fatigue and anorexia not requiring treatment” and the positive tumor responses (patients with breast, ovarian and gastrointestinal tumors) was 77-85%.
